Assay in all cases: purified protein, by the assay type
Substrate in series [1]: NCCc1c[nH]c2ccc(O)cc12
Substrate in series [2]: NCCc1c[nH]c2ccccc12
Substrate in series [3]: CC(=O)SCCNC(=O)CCNC(=O)[C@H](O)C(C)(C)COP(=O)(O)OP(=O)(O)OC[C@H]1O[C@@H](n2cnc3c(N)ncnc32)[C@H](O)[C@@H]1OP(=O)(O)O
Substrate in series [4]: CC(N)Cc1c[nH]c2ccccc12
The settings on record: other: Table 1, tryptamine analogs.

Substrate in series [5]: CNCCc1c[nH]c2ccccc12
The settings on record: other: Table 1, tryptamine analogs.

Setting [6] is: other: 1 mM (near saturating) concentration of the fixed substrate, GST-AANAT.
Where [7] appears, read: other: ionic strength I~0.1, GST-AANAT.
Where [8] appears, read: other: Table 1, tryptamine analogs.

B1: GST-AANAT fusion (Ovis aries) (protein)
chain: MSTPSVHCLKPSPLHLPSGIPGSPGRQRRHTLPANEFRCLTPEDAAGVFEIEREAFISVSGNCPLNLDEVQHFLTLCPELSLGWFVEGRLVAFIIGSLWDEERLTQESLALHRPRGHSAHLHALAVHRSFRQQGKGSVLLWRYLHHVGAQPAVRRAVLMCEDALVPFYQRFGFHPAGPCAIVVGSLTFTEMHCSLRGHAALRRNSDR
As a reminder, the Km is the concentration of substrate that gives half-maximal velocity. Regarding B1, the Michaelis constant (Km) was 241 µM in series [1] (setting [6]), 100 µM in series [2] (setting [7]), 289 µM in series [3] (setting [6]) and 100 µM in series [3] (setting [7]).

B2: unmodified AANAT (Ovis aries) (protein)
chain: B1 chain
For the protein B2, the Km in series [3] (other: 1 mM (near saturating) concentration of the fixed substrate, AANAT) is 178 µM.

B3: AANAT (Ovis aries) (protein)
chain: B1 chain
As for B3, the Michaelis constant (Km) amounted to 2700 µM in series [4], 240 µM in series [1] (setting [8]), 3800 µM in series [5] and 170 µM in series [2] (setting [8]).

Values taken from US5990094A, “Inhibitors of sorotonin N-acetyltransferase” (The Rockefeller University, priority 1998, dated 1999).
